Patent EP3460067A1, “PROCESS FOR ENZYMATIC OXIDATION OF LINEAR CARBOHYDRATES” (Technische Universität München, priority 2017, dated 2019)
One block for each molecule: values may come before it.

Key:
[1] = molecular target: T1, SpsADH (Sphingomonas sp. A1, UniProt A0A075B5H4); assay: photometric SpsADH enzyme assay, oxidation of substrates (NAD+/NADH at 340 nm); format: biochemical, Sphingomonas species A1
T1 sequence (A0A075B5H4 1-258): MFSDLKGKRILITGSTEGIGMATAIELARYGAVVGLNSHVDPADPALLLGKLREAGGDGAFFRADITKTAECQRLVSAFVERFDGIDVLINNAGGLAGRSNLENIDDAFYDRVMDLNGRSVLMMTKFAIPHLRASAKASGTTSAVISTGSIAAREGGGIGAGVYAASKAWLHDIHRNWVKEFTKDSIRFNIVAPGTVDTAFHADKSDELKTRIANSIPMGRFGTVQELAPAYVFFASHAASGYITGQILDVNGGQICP
Description: The activity of SpsADH was determined photometrically by monitoring the increase/decrease of NAD^+/NADH at 340 nm using the Infinite 200 pro photometer (Tecan Group Ltd.). Reactions were performed at 25 C in triplicate using 96-well microtiter plates. For determination of the substrate scope, the reaction mixtures contained 50 mM ammonium bicarbonate, pH 7.9, 0.3 mM NADH (or 1 mM NAD^+), a defined alcohol, aldehyde, aldonic acid or uronic acid as substrate and the purified enzyme. One unit of enzyme activity was defined as the amount of protein that reduces (oxidizes) 1 µmol of NAD(H)/min at […]. Calculation of Michaelis-Menten kinetics for determination of Km and vmax was done with Sigma-Plot 11.0 (Systat Software).

[2] = substrate: O=C(O)C(=O)C[C@H](O)[C@H](O)CO; assay: as above; format: biochemical, Sphingomonas species A1; details: other: oxidation of KDG by SpsADH, 50 mM ammonium bicarbonate pH 7.9, NAD+, 25 C
Description: (§1) The activity of SpsADH was determined photometrically by monitoring the increase/decrease of NAD^+/NADH at 340 nm using the Infinite 200 pro photometer (Tecan Group Ltd.). Reactions were performed at 25 C in triplicate using 96-well microtiter plates. For determination of the substrate scope, the reaction mixtures contained 50 mM ammonium bicarbonate, pH 7.9, 0.3 mM NADH (or 1 mM NAD^+), a defined alcohol, aldehyde, aldonic acid or uronic acid as substrate and the purified enzyme. One unit of enzyme activity was defined as the amount of protein that reduces (oxidizes) 1 µmol of NAD(H)/min at 37 °C. Calculation of Michaelis-Menten kinetics for determination of Km and vmax was done with Sigma-Plot 11.0 (Systat Software).

[3] = substrate: O=C(O)[C@H](O)[C@H](O)[C@H](O)CO; assay: as above; format: biochemical, Sphingomonas species A1; details: other: oxidation of C5/C6 aldonates by SpsADH (Table 3); pH 7.9
Description: as §1

[4] = substrate: O=C(O)[C@@H](O)[C@H](O)[C@H](O)CO; assay: as above; format: biochemical, Sphingomonas species A1; details: other: oxidation of C5/C6 aldonates by SpsADH (Table 3); pH 7.9
Description: as §1

[5] = substrate: O=C(O)[C@H](O)[C@@H](O)[C@H](O)[C@H](O)CO; assay: purified protein, by the assay type; details: other: oxidation of C5/C6 aldonates by SpsADH (Table 3); pH 7.9
[6] = substrate: O=C(O)[C@@H](O)[C@@H](O)[C@H](O)[C@H](O)CO; assay: purified protein, by the assay type; details: other: oxidation of C5/C6 aldonates by SpsADH (Table 3); pH 7.9
[7] = substrate: O=C(O)[C@H](O)[C@H](O)[C@H](O)[C@H](O)CO; assay: purified protein, by the assay type; details: other: oxidation of C5/C6 aldonates by SpsADH (Table 3); pH 7.9
[8] = substrate: O=C(O)[C@@H](O)[C@H](O)[C@H](O)[C@H](O)CO; assay: purified protein, by the assay type; details: other: oxidation of C5/C6 aldonates by SpsADH (Table 3); pH 7.9

- oxidative activity ([1]; native substrate KDG, result in words): very low oxidative activity
Molecule: O=C(O)C(=O)C[C@H](O)[C@H](O)CO [KDG, 2-keto-3-deoxy-D-gluconate]

Molecule: OC[C@@H](O)[C@@H](O)[C@H](O)[C@@H](O)CO [D-sorbitol]
- activity ([1]; oxidation by SpsADH, polyol): 1.7 mU/mg
- vmax ([1]; oxidation of D-sorbitol to L-gulose by SpsADH): 6.2 ± 0.1 mU/mg

B1: SpsADH (Sphingomonas sp. A1) (protein)
chain: T1 sequence (A0A075B5H4 1-258)
- Km [2]: 20.9 ± 3.16 mM
- Vmax [2]: 1.81 ± 0.009 U/mg
- kcat [2]: 0.89 ± 0.047 s⁻¹
- kcat/Km [2]: 42.5 ± 8.68 M⁻¹ s⁻¹
- Km [3]: 16.9 ± 1.4 mM
- Vmax [3]: 0.01 ± 0.00 U/mg
- kcat [3]: 0.01 ± 0.00 s⁻¹
- kcat/Km [3]: 0.3 ± 0.1 M⁻¹ s⁻¹
- Km [4]: 25.6 ± 2.6 mM
- Vmax [4]: 0.01 ± 0.00 U/mg
- kcat [4]: 0.01 ± 0.00 s⁻¹
- kcat/Km [4]: 0.2 ± 0.0 M⁻¹ s⁻¹
- Km [5]: 15.7 ± 1.6 mM
- Vmax [5]: 1.28 ± 0.04 U/mg
- kcat [5]: 0.63 ± 0.02 s⁻¹
- kcat/Km [5]: 40.0 ± 5.4 M⁻¹ s⁻¹
- Km [6]: 18.3 ± 1.3 mM
- Vmax [6]: 0.52 ± 0.01 U/mg
- kcat [6]: 0.26 ± 0.00 s⁻¹
- kcat/Km [6]: 13.9 ± 1.2 M⁻¹ s⁻¹
- Km [7]: 17.1 ± 2.4 mM
- Vmax [7]: 0.28 ± 0.01 U/mg
- kcat [7]: 0.14 ± 0.01 s⁻¹
- kcat/Km [7]: 8.1 ± 1.4 M⁻¹ s⁻¹
- Km [8]: 27.0 ± 4.2 mM
- Vmax [8]: 0.32 ± 0.01 U/mg
- kcat [8]: 0.16 ± 0.01 s⁻¹
- kcat/Km [8]: 5.8 ± 1.2 M⁻¹ s⁻¹
